The term stoichiometry N denotes the number of molecules, sites or subunits per partner or assembly.

In this experiment the target is recombinant RRM2 domain (aa 190–265) of human WT TDP-43 (human) (UniProt Q13148). Briefly: SEC; Superdex 75 10/300 in PBS, 0.5 mL/min; soluble RRM2 2–3 mg/mL after heat at 70°C for 10 min, nucleotide-free. For orientation: In gel filtration, larger molecules generally elute earlier.

For “recombinant RRM2 domain (aa 190–265) of human WT TDP-43 (from UniProt Q13148 190-265) (domain or fragment)”, the stoichiometry N was found to be 2.
